Reference: paper PMC11980035, “Activation of automethylated PRC2 by dimerization on chromatin” (Molecular cell, 2024)

Molecular target: T1, Enhancer of zeste homolog 2 (EZH2), isoform 2, subunit of recombinant human PRC2, automethylated (human, UniProt Q15910-2 1-751, K510, K514 and K515 methylated to varying degrees (automethylation))
T1 construct: EZH2 isoform 2, human, full-length; Stood in the assay as a subunit of PRC2; also called EZH2^dist; EZH2^prox; source: as subunit of m1: HighFive / Trichoplusia ni insect cells, baculovirus, purified within PRC2
T1 sequence (Q15910 other isoform, or with tags, fused parts or gaps): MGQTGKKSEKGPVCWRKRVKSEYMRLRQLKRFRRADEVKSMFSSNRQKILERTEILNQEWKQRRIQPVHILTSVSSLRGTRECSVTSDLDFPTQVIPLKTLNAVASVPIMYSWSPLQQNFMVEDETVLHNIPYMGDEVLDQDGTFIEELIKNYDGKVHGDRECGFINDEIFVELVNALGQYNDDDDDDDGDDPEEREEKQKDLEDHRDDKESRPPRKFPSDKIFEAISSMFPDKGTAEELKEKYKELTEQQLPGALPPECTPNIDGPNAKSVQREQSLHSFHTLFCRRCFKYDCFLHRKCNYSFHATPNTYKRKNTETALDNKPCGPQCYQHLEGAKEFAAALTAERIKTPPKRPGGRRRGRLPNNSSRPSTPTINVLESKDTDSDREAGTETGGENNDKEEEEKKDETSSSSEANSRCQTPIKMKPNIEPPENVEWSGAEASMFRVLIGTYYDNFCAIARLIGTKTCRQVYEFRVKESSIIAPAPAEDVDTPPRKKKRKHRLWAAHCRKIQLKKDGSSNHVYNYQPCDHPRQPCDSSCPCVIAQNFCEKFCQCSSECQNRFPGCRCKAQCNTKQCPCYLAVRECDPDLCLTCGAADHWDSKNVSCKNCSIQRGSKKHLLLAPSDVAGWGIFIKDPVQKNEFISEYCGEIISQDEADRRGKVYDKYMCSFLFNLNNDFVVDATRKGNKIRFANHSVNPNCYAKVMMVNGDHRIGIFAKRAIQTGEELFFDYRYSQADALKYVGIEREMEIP
Test: cryo-EM structure; 800 nM automethylated PRC2 with 200 nM biotinylated nucleosome and 100 μM SAH in 25 mM HEPES pH 7.9, 50 mM KCl, 1 mM TCEP, 30 minutes at RT; nucleosome held on streptavidin affinity grids; classes of a PRC2 dimer and of a PRC2 monomer on the nucleosome
Conditions: both partners purified

B1: Embryonic ectoderm development (EED), subunit of recombinant human PRC2 (natural protein)
chain: not shown
notes: EED, human, full-length; Stood in the assay as a subunit of PRC2; also called EED^prox; EED^dist; source: as subunit of m1: HighFive / Trichoplusia ni insect cells, baculovirus, purified within PRC2
binding result: binds
